The target of this data set is GST-GNL1 (UniProt P36915 1-607). The data set is described as follows: EMSA.

For orientation: Kd means the constant that tells how readily two partners part at equilibrium. A lower Kd goes with higher affinity.

Sequence of GST-GNL1 (P36915 whole entry): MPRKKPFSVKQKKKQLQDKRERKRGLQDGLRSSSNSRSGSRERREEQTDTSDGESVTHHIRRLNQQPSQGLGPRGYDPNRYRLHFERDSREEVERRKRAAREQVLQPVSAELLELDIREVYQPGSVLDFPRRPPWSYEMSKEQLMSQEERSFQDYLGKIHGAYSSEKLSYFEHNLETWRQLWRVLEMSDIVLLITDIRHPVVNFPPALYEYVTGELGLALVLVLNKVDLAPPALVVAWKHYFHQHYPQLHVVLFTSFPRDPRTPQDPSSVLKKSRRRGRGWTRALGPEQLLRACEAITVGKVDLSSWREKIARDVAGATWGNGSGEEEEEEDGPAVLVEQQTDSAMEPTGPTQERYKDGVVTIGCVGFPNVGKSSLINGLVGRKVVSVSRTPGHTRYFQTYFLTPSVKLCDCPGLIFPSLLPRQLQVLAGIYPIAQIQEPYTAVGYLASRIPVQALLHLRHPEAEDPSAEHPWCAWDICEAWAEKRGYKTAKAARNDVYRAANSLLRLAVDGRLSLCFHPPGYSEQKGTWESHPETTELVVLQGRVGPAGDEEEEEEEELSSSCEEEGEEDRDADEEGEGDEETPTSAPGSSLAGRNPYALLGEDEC

B1: PRKN G/A mutant (ssRNA)
RNA: GGAUUCCUAGGGCCGAGCGCGAGAGCGAGAAGGCCUGAAGGAUUUAACCCAGAAGAGCCGCUGGUGAGAGGCGCGGCUGGCGCCGCUGCGCGC
As to B1, binding was characterised by a dissociation constant (Kd) of 7.34 µM.

The values above are taken from PMC8354592.
